This note sets out measurements from US10428320B2, “Crystal structure of Staphylococcus aureus Autolysin E, method of producing the crystal and its use in screening methods” (J. Stefan Institute, priority 2015, dated 2019).

“Also recorded” adds a separate entry of the source.

Experiment [1] concerns S. aureus purified peptidoglycan. The experiment in a line: Degradation of Remazol Brilliant Blue labeled S. aureus peptidoglycan (cell wall substrate), colorimetric. The class given is biochemical, Staphylococcus aureus. As to conditions: mutants in comparison with the native enzyme. From the text: • AtlE is 259 amino acid long protein encoded by the SAV2307 gene loci in the genome of S. aureus strain Mu50. The truncated sequences of glucosaminidase domains of AtlE, lacking the first 34 residues and glu AtlA from S1012 onwards, include additional four amino acids (SAAA, i.e. Ser-Ala-Ala-Ala) that belong to the recognition site of TEV protease. The nucleotide sequences were amplified from the genomic DNA of S. aureus Mu50 using KOD Hot Start Polymerase and cloned into pMCSG 7 plasmid in the frame with N-terminal His-Tag as described [Eschenfeldt et al., 2009]. The mutants were prepared by the overlap extension method [Ho et al., 1989]. The proteins were expressed in BL21(DE3) E. coli expression strain grown in YZM5052 auto induction medium. To facilitate the expression of proteins in soluble form, the cells were initially grown at 37° C. When optical density (OD) measured at 600 nm reached the value of 1, the cells were transferred to 25° C. After 16 hours the cells were pelleted by centrifugation (15 minutes at 7000× g), re-suspended in the buffer A ([…] Tris, 0.4 M NaCl, pH 7.5) supplemented with 1 mg/ml of lysozyme, and frozen and disrupted by the freezing thawing cycles and sonication. The proteins were purified from the cell lysate on AKTAxpress FPLC system (GE Healthcare) using two-step purification protocol. The first purification step was Ni^2+-affinity chromatography on HiTrap IMAC FF column (GE Healthcare) equilibrated in buffer A with 10 mM imidazole. […] 2. […] The degradation products were analyzed by mass spectroscopy. A single cleavage between the central NAG-NAM residues should indicate the classic N-acetyl-glucosaminidase activity by generating the NAM-NAG and NAM-NAGred disaccharides, whereas NAMred and NAG-NAM-NAGred would indicate the muraminidase activity. […] 3. Isolation of S. aureus Peptidoglycan • S. aureus cells were grown overnight in Brain Hearth Infusion Broth (BHI) (37° C., 250 rpm) pelleted by centrifugation (15 minutes at 6000× g), washed three times with the 30 mM Tris, 0.4 M NaCl buffer and then re-suspended in the same buffer. After heat inactivation, the insoluble pellet was re-suspended in 4% SDS and incubated 30 minutes at 80° C. After 30 minutes of centrifugation at 40,000× g, the pellet was re-suspended and washed six times in water. Proteins that remained associated with the peptidoglycan were digested overnight by incubation with trypsin (1 mg/ml) in 30 mM Tris, 0.4 M NaCl, 10 mM MgCl2, pH 7.5 buffer. After pelleting (30 minutes at 40000× g) peptidoglycan was treated overnight with 5 ml 40% aqueous hydrogen fluoride to remove teichoic acid, pelleted again (30 minutes at 40000× g) and washed extensively with water. Saturated suspension of the pure peptidoglycan solution in water was stored at −20° C. 4. Biochemical Peptidoglycan Degradation and Labeling with Remazol Brilliant Blue • For the colorimetric assays, peptidoglycan was labeled with Remazol Brilliant Blue as described [Odintsov et al., 2004]. In short, 50 ul of water suspension of Remazol Brilliant Blue labeled peptidoglycan was mixed with 10 ul of 1 M buffer solutions at pH of […] of 4 M NaCl, different amounts of enzymes and filled with water to the final volume […]. The final concentration of buffer and NaCl in the reaction mixture was therefore 100 mM.

Experiment [2] can be described thus: Digestion of synthetic tetrasaccharide substrate, products analyzed by mass spectroscopy. The class given is biochemical. As to conditions: mass spectroscopy of degradation products. From the text:
(§1) • AtlE is 259 amino acid long protein encoded by the SAV2307 gene loci in the genome of S. aureus strain Mu50. The truncated sequences of glucosaminidase domains of AtlE, lacking the first 34 residues and glu AtlA from S1012 onwards, include additional four amino acids (SAAA, i.e. Ser-Ala-Ala-Ala) that belong to the recognition site of TEV protease. The nucleotide sequences were amplified from the genomic DNA of S. aureus Mu50 using KOD Hot Start Polymerase and cloned into pMCSG 7 plasmid in the frame with N-terminal His-Tag as described [Eschenfeldt et al., 2009]. The mutants were prepared by the overlap extension method [Ho et al., 1989]. The proteins were expressed in BL21(DE3) E. coli expression strain grown in YZM5052 auto induction medium. To facilitate the expression of proteins in soluble form, the cells were initially grown at 37° C. When optical density (OD) measured at 600 nm reached the value of 1, the cells were transferred to 25° C. After 16 hours the cells were pelleted by centrifugation (15 minutes at 7000× g), re-suspended in the buffer A ([…] Tris, 0.4 M NaCl, pH 7.5) supplemented with 1 mg/ml of lysozyme, and frozen and disrupted by the freezing thawing cycles and sonication. The proteins were purified from the cell lysate on AKTAxpress FPLC system (GE Healthcare) using two-step purification protocol. […] The degradation products were analyzed by mass spectroscopy. […]

Experiment [3] is described as follows: Digestion of synthetic hexa-NAG substrate, products analyzed by mass spectroscopy. As to conditions: mass spectroscopy of degradation products. Type of experiment: biochemical.
From the text: as §1

B1: E138A (protein)
chain: MKKNFKLRISTLLLIVILVVFAVLLIVNETKLFKNDVNYSFDEAVSMQQGKGIVQTKEEDGKFVEANNNEIAKAMTISHKDNDMKYMDITEKVPMSESEVNQLLKGKGILENRGKVFLEAQEKYEVNVIYLVSHALVATGNGKSELAKGIKDGKKRYYNFFGIGAFDSSAVRSGKSYAEKEQWTSPDKAIIGGAKFIRNEYFENNQLNLYQMRWNPENPAQHQYASDIRWADKIAKLMDKSYKQFGIKKDDIRQTYYK
On to B1, for which the “activity against the cell wall substrate (S. aureus peptidoglycan)” value (shortened to “activity against the cell wall substrate”) in experiment [1] is “abolished activity”; in experiment [1] (listed as E138), “zero activity”.

B2: D167A (protein)
chain: MKKNFKLRISTLLLIVILVVFAVLLIVNETKLFKNDVNYSFDEAVSMQQGKGIVQTKEEDGKFVEANNNEIAKAMTISHKDNDMKYMDITEKVPMSESEVNQLLKGKGILENRGKVFLEAQEKYEVNVIYLVSHALVETGNGKSELAKGIKDGKKRYYNFFGIGAFASSAVRSGKSYAEKEQWTSPDKAIIGGAKFIRNEYFENNQLNLYQMRWNPENPAQHQYASDIRWADKIAKLMDKSYKQFGIKKDDIRQTYYK
With B2, the “activity against the cell wall substrate” value in experiment [1] is “halved activity”.

B3: Y201A (protein)
chain: MKKNFKLRISTLLLIVILVVFAVLLIVNETKLFKNDVNYSFDEAVSMQQGKGIVQTKEEDGKFVEANNNEIAKAMTISHKDNDMKYMDITEKVPMSESEVNQLLKGKGILENRGKVFLEAQEKYEVNVIYLVSHALVETGNGKSELAKGIKDGKKRYYNFFGIGAFDSSAVRSGKSYAEKEQWTSPDKAIIGGAKFIRNEAFENNQLNLYQMRWNPENPAQHQYASDIRWADKIAKLMDKSYKQFGIKKDDIRQTYYK
For the molecule B3, the results for the “activity against the cell wall substrate” value in experiment [1] and in experiment [1] (listed as Y201) were “completely inactive” and “zero activity; also recorded: abolished the enzymatic activity”, respectively.

B4: D227A (protein)
chain: MKKNFKLRISTLLLIVILVVFAVLLIVNETKLFKNDVNYSFDEAVSMQQGKGIVQTKEEDGKFVEANNNEIAKAMTISHKDNDMKYMDITEKVPMSESEVNQLLKGKGILENRGKVFLEAQEKYEVNVIYLVSHALVETGNGKSELAKGIKDGKKRYYNFFGIGAFDSSAVRSGKSYAEKEQWTSPDKAIIGGAKFIRNEYFENNQLNLYQMRWNPENPAQHQYASAIRWADKIAKLMDKSYKQFGIKKDDIRQTYYK
With B4, the “activity against the cell wall substrate” value in experiment [1] was “halved activity”.

B5: E145A (protein)
chain: MKKNFKLRISTLLLIVILVVFAVLLIVNETKLFKNDVNYSFDEAVSMQQGKGIVQTKEEDGKFVEANNNEIAKAMTISHKDNDMKYMDITEKVPMSESEVNQLLKGKGILENRGKVFLEAQEKYEVNVIYLVSHALVETGNGKSALAKGIKDGKKRYYNFFGIGAFDSSAVRSGKSYAEKEQWTSPDKAIIGGAKFIRNEYFENNQLNLYQMRWNPENPAQHQYASDIRWADKIAKLMDKSYKQFGIKKDDIRQTYYK
Turning to B5, the “activity against the cell wall substrate” value in experiment [1] is on record as “activity of native enzyme; also recorded: activity equivalent to the native enzyme”.

B6: AtlE: recombinant glucosaminidase domain of Autolysin E of S. aureus Mu50, encoded by SAV2307 (protein)
chain: SAAANDVNYSFDEAVSMQQGKGIVQTKEEDGKFVEANNNEIAKAMTISHKDNDMKYMDITEKVPMSESEVNQLLKGKGILENRGKVFLEAQEKYEVNVIYLVSHALVETGNGKSELAKGIKDGKKRYYNFFGIGAFDSSAVRSGKSYAEKEQWTSPDKAIIGGAKFIRNEYFENNQLNLYQMRWNPENPAQHQYASDIRWADKIAKLMDKSYKQFGIKKDDIRQTYYK
For B6, the “digestion products / specificity on (NAM-NAG)2red” value in experiment [2] is given as “only NAM-NAGred with Mw of 499.21 Da was found”. For the same molecule, the “cleavage of (NAG)6” value in experiment [3] was “not degraded at all; also recorded: cannot”.
